Earlier results on one substance are cited in paper PMC12406711.

As usually defined, the Kd is the free concentration of one partner at which half of the binding sites on the other are occupied at equilibrium, for simple one-to-one binding.

The data set addresses PCDH10 ECD (Homo sapiens) (UniProt Q9P2E7).

On to PCDH10 ECD (from UniProt Q9P2E7), for which the Kd is 3.6 µM.
